Sequences and labels used below:
B1: HDV Ribozyme (parent)
chain: GGCCGGCAUGGUCCCAGCCUCCUCGCUGGCGCCGGCUGGGCAACAUUCCGAGGGGACCGUCCCCUCGGUAAUGGCGAAUGGGACCCA

The variants in this data set derive from B1. As to the kind of experiment: self-cleavage, relative activity (ratio to wild type); higher = more cleavage; co-transcriptional.
For GGACGGCAAGGUCCCAGCCUCCUCGCUGGCGCCGGCUGGGCAACAUUCCGAGGGGACCGUCCCCUCGGUAAUGGCGAAUGGGACCCA [C3A U9A], the self-cleavage came to 0.657.
Turning to GGACGGCAUGGUCCCAGCCUCCUCGCUGGCGCCGUCUGGGCAACAUUCCGAGGGGACCGUCCCCUCGGUAAUGGCGAAUGGGACCCA [C3A G35U], the self-cleavage turned out to be 1.14.
For the variant GGACGGCAUGGUCCCAGCCUCCUCGCUGGCGCCGACUGGGCAACAUUCCGAGGGGACCGUCCCCUCGGUAAUGGCGAAUGGGACCCA [C3A G35A], the self-cleavage amounted to 0.859.
In the case of GGACGGCAUGGUCCCAGCCUCCUCGCUGGCGCCGGCUGGGCAACAUUCCGAGGGGACCGUCCCUUCGGUAAUGGCGAAUGGGACCCA [C3A C64U], the self-cleavage amounted to 0.65.
Turning to GGACGGCAUGGUCCCAGCCUCCUCGCUGGCGCCGGCUGAGCAACAUUCCGAGGGGACCGUCCCCUCGGUAAUGGCGAAUGGGACCCA [C3A G39A], the self-cleavage is 0.067.
Next, GGACGGCAUGGUCCCAUCCUCCUCGCUGGCGCCGGCUGGGCAACAUUCCGAGGGGACCGUCCCCUCGGUAAUGGCGAAUGGGACCCA [C3A G17U]: 0.0665.
Next, GGACGGCAUGGUCCCAACCUCCUCGCUGGCGCCGGCUGGGCAACAUUCCGAGGGGACCGUCCCCUCGGUAAUGGCGAAUGGGACCCA [C3A G17A]: 0.104.
In the case of GGACGGCAUGGUCCCAGCCUCCUCGCUGGCGCCGGCUGGGCAACAUUCCGAGGGGACCGUCCCCUCGGUAAUGGCGAAUGGUACCCA [C3A G82U], the self-cleavage stood at 0.0831.
For the variant GGACGGCAUGGUCCCAGCCUCCUCGCUGGCGCCGGCUGGGCAACAUUCCGAGGGGACCGUCCCCUCGGUAAUGGCGAAUGGCACCCA [C3A G82C], the self-cleavage was 0.056.
Take GGACGGCAUGGUCCCAGCCUCCUCGCUGGCGCCGGCUGGGCAACAUUCCGAGGGGACCGUCCCCUCGGUAAUGGCGAAUGGGAACCA [C3A C84A]: the self-cleavage was 0.391.
Take GGACGGCAUGGUCCCAGCCUCCUCGCUGGCGCCGGCUGGGCAACAUUCCGAGGGGACCGUCCCCUCGGUAAUGGCGAAUGGGAGCCA [C3A C84G]: the self-cleavage came out at 0.158.
GGACGGCAUGGUCCCAGCCUCCUCGCUGGCGCCGGCUGGGCAACAUUCCCAGGGGACCGUCCCCUCGGUAAUGGCGAAUGGGACCCA [C3A G50C]: the self-cleavage amounted to 0.572.
In the case of GGACGGCAUGGUCCCAGCCUCCUCGCUGGCGCCGGCUGGGCAACAUUCCGAGGGGACCGUCCUCUCGGUAAUGGCGAAUGGGACCCA [C3A C63U], the self-cleavage turned out to be 0.559.
Next, GGACGGCAUGGUCCCAGCCUCCUCGCUGGCGCCGGCUGGGCAACAUUCCGAGGGGACCGUCCGCUCGGUAAUGGCGAAUGGGACCCA [C3A C63G]: 0.285; GGACGGCAUGAUCCCAGCCUCCUCGCUGGCGCCGGCUGGGCAACAUUCCGAGGGGACCGUCCCCUCGGUAAUGGCGAAUGGGACCCA [C3A G11A]: 0.236.
Turning to GGACGGCAUGCUCCCAGCCUCCUCGCUGGCGCCGGCUGGGCAACAUUCCGAGGGGACCGUCCCCUCGGUAAUGGCGAAUGGGACCCA [C3A G11C], the self-cleavage came out at 0.0963.
Next, GGACGGCAUGGUCCCAGCCUCCUCGCUGGCGCCGGCUGGGCAACAUUCCGAGGGGACCGUCCCCUCGGUAAUGGCGAAUGGGACGCA [C3A C85G]: 0.623.
Next, GGACGGCAUGGUCCCAGCCUCCUCGCUGGCGCCGGCUGGGCAACAUUCCGAGGGGAACGUCCCCUCGGUAAUGGCGAAUGGGACCCA [C3A C57A]: 0.659.
Next, GGACGGCAUGGUCCCAGCCUCCUCGCUGGCGCCGGCUGGGCAACAUUCCGAGGGGAGCGUCCCCUCGGUAAUGGCGAAUGGGACCCA [C3A C57G]: 0.587; GGACUGCAUGGUCCCAGCCUCCUCGCUGGCGCCGGCUGGGCAACAUUCCGAGGGGACCGUCCCCUCGGUAAUGGCGAAUGGGACCCA [C3A G5U]: 0.00831.
For the variant GGACGGCAUGGUCCCAGCCUCCUCGCUGGCGCCGGCUGGGCAACAUUCCGAGGGGACCGUCCCCUCGGUAAUUGCGAAUGGGACCCA [C3A G73U], the self-cleavage was found to be 0.111.
In the case of GGACGGCAUGGUCCCAGCCUCCUCGCUGGCGCCGGCUGGGCAACAUUCCGAGGGGACCGUCCCCUCGGUAAUGGCCAAUGGGACCCA [C3A G76C], the self-cleavage is 0.604.
The result for GGACGGCAUGGUCCCAGCCUCCUCGCUGGCGCCGGCUGGGCAACAUUCCGAGGGGACCGUCCCCUCGGUAAUGGCUAAUGGGACCCA [C3A G76U] reads 0.773.
Next, GGACGGCAUGGUCCCAGCCUCCUCGCUGGCUCCGGCUGGGCAACAUUCCGAGGGGACCGUCCCCUCGGUAAUGGCGAAUGGGACCCA [C3A G31U]: 0.0339.
As to GGACGGCAUGGUCCCAGCCUCCUCGCUGGAGCCGGCUGGGCAACAUUCCGAGGGGACCGUCCCCUCGGUAAUGGCGAAUGGGACCCA [C3A C30A], the self-cleavage came to 0.0393.
Next, GGACGGCAUGGUCCCAGCCUCCUCGCUGGUGCCGGCUGGGCAACAUUCCGAGGGGACCGUCCCCUCGGUAAUGGCGAAUGGGACCCA [C3A C30U]: 0.143; GGACGGCAUGGUCCCAGCCUCCUCGCUGGCGCCGGCUGGGCAACAUUCGGAGGGGACCGUCCCCUCGGUAAUGGCGAAUGGGACCCA [C3A C49G]: 0.51; GGACGGCAUGGUCCCAGCCUCCUCGCUGGCGCCGGCUGGGCAACAUUCUGAGGGGACCGUCCCCUCGGUAAUGGCGAAUGGGACCCA [C3A C49U]: 0.777.
In the case of GGACGGCAUGGUCCCAGCCUCCUCGCUGGCGCCGGCUGGGCAACAUUCAGAGGGGACCGUCCCCUCGGUAAUGGCGAAUGGGACCCA [C3A C49A], the self-cleavage turned out to be 0.554.
Next, GGACGGCAUGGUCCCAGCCUCCUCGCUGGCGCCGGCUGGGCAACAUUCCGAGGGGACCGUCCCCUCGGUAAUGGCGAAUGAGACCCA [C3A G81A]: 0.054.
For GGACGGCAUGGUCCCAGCCUCCUCGCUGGCGCCGGCUGGGCAACAUUCCGAGGGGACCGUCCCCUCGGUAAUGGCGAAUGCGACCCA [C3A G81C], the self-cleavage worked out at 0.0158.
As to GGACGGCAUGGUCCCAGCCUCCUCGCUGGCGCCGGCUGGGGAACAUUCCGAGGGGACCGUCCCCUCGGUAAUGGCGAAUGGGACCCA [C3A C41G], the self-cleavage was found to be 0.0761.
